Laboratory results from patent US20240262917A1, “ANTIBODIES AGAINST ALK AND METHODS OF USE THEREOF” (Dana-Farber Cancer Institute, Inc., priority 2021, published 2024).
Entries after “also recorded” stand apart in the source; their conditions may differ.

Experiments:
Assay type in all cases: binding
full-length ALK receptor = target: T1, full-length ALK receptor (Homo sapiens, UniProt Q9UM73); assay: Immunoprecipitation of ALK from neuroblastoma cell lysates; details: immunoblotting with commercial anti-ALK C-terminal antibody
T1 construct: endogenous in cells
T1 sequence (Q9UM73 19-1620): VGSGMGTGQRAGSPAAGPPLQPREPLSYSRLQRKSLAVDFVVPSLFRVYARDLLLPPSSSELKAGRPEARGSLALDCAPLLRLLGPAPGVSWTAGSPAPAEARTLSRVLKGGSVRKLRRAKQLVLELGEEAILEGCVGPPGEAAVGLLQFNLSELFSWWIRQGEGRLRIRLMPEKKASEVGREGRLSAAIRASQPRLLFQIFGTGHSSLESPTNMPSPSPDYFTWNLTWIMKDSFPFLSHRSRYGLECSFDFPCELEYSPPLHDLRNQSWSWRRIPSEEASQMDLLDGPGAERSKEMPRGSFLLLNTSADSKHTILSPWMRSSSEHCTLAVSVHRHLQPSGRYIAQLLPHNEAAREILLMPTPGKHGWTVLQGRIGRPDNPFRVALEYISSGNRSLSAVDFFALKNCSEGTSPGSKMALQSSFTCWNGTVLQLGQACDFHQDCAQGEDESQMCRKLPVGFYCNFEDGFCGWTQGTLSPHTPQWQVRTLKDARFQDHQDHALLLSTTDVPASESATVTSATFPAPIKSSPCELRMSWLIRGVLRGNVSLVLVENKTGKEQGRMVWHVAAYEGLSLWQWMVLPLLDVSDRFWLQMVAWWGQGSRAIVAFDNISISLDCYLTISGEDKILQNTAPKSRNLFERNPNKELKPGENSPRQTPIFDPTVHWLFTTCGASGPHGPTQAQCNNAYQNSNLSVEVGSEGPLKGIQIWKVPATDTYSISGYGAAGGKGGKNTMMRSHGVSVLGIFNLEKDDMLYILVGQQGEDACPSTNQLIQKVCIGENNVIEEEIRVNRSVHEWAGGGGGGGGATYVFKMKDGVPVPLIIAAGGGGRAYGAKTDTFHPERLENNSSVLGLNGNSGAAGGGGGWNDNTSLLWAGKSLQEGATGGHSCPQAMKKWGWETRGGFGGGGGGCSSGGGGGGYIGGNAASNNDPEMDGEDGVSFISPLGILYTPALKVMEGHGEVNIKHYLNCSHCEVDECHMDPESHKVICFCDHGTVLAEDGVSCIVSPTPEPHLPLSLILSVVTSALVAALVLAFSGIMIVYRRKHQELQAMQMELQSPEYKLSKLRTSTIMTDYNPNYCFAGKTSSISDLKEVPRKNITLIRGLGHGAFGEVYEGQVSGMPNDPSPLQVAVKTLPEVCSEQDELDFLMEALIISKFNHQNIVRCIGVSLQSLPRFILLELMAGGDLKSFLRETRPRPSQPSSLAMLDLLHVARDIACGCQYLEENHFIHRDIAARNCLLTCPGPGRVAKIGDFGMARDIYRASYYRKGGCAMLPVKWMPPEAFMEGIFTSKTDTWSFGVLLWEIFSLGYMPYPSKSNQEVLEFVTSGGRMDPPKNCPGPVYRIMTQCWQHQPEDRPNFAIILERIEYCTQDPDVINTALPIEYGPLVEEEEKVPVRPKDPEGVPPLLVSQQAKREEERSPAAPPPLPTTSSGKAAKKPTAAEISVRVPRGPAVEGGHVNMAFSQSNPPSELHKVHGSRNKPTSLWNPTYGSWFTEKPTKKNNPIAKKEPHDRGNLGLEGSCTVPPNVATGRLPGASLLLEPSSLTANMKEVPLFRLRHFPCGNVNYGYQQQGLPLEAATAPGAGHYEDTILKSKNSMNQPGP
Excerpt: Cell lysates from the indicated neuroblastoma cell lines were subjected to immunoprecipitation (IP) using 8G7 and subsequently to immunoblotting analysis using the commercial anti-ALK C-terminal antibody.

ALK receptor = target: T2, ALK receptor (Homo sapiens, UniProt Q9UM73, F1174L); assay: Immunofluorescence detection of ALK
T2 construct: expressed in transfected cells; host or cells: SHEP neuroblastoma cells
T2 sequence (Q9UM73 19-1620 F1174L): as the sequence (Q9UM73 19-1620) above, with F1156L counted along it
Excerpt: (A) IF images (40×) of NGP neuroblastoma cells expressing wild type ALK stained with the 8G7 antibody. A 1:100 antibody dilution was used. […] The last plasmid serves as a negative control similar to NIH3T3-MSCV cells in which the vector only is expressed.
Immunofluorescence detection of ALK with 8G7 and 7F7 antibodies in SHEP NB cells engineered to express the ALKF1174L mutation. Staining with the M13 antibody obtained from the Vigny laboratory under an MTA is shown for comparison (Moog-Lutz et al, 2005). Cells expressing the vector only (SHEP) were used as controls. Cells were stained with a 1:100 dilution of antibody. Images were captured at 40× with a Zeiss AXIO Imager Z1 fluorescence microscope.
Cells (0.5×10^6 per well) were seeded into six-well plates and grown on glass coverslips for 24 hr. before fixation in 4% paraformaldehyde in PBS for 15 min at room temperature (RT), washed with PBS, permeabilized in 0.1% Triton X-100, and blocked with PBS containing 0.05% Tween-20 and 5% BSA for 1 hr. to block nonspecific binding. Then, cells were incubated with the 8G7 antibody (1:100) overnight at 4° C. After washing with PBS, cells were incubated with AlexaFluor 568-conjugated secondary antibody for 1 hr. at 25° C. Images were collected on a Zeiss AXIO Imager Z1 fluorescence microscope. […] After 24 hours, cells were washed once in PBS, fixed in 4% paraformaldehyde in PBS, washed, permeabilized in 0.1% Triton X-100, and blocked in PBS containing 10% horse serum. […] The next day, cells were washed, incubated in goat anti-rabbit IgG secondary antibody (1:1000) for 1 hr. washed, and incubated in Streptavidin-TexasRed (1:1000) for 1 hr. Cover slips were mounted onto slides using mounting medium containing DAPI. Images were collected on a Zeiss AXIO Imager Z1 fluorescence microscope.

[1] = target: T3, ALK extracellular fragment (Homo sapiens, UniProt Q9UM73); assay: Sandwich ELISA of shed ALK ECD in patient sera; details: sera of patients with ALK-expressing neuroblastoma
T3 construct: conditioned media containing the shed ALK (ALK 1-654) ECD fragment; from tissue; host or cells: serum of neuroblastoma patients
T3 sequence (Q9UM73 19-654): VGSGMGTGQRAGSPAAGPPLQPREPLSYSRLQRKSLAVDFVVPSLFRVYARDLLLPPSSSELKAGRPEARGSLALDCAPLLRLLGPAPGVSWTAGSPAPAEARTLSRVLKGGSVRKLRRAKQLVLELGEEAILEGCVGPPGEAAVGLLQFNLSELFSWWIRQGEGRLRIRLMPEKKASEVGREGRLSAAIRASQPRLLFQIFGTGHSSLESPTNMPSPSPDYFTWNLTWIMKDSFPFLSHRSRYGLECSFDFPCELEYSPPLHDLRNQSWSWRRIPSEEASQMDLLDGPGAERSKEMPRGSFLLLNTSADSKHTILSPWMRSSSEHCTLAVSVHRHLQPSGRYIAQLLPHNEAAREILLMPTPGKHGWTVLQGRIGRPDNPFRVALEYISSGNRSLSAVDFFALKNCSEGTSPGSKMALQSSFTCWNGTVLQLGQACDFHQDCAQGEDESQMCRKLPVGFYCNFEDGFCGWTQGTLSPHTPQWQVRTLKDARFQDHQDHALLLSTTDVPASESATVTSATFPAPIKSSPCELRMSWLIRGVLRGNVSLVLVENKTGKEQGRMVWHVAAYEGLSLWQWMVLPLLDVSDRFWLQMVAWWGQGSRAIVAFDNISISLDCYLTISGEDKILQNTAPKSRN
Excerpt: Detection of the purified ALK-ECD protein using 8G7 (detection) and 7F7 (capture) anti-ALK antibodies by sandwich ELISA. (A) Standard curve showing the gradual increase in signal with increasing concentrations of the ALK-ECD protein in the media of NGP cells that express cleaved ALK. Quantification is shown below. (B) ELISA of the shed ALK ECD protein in sera from patients with neuroblastoma. Ample diluent buffer was used to dilute the serum samples, Media represents Dulbecco's Modified Eagle media in which human embryonic kidney 293T cells were grown, 293T media, conditioned media from 293T cells; ALK ECD 293T media, media collected from 293T cells in which the ALK-ECD-mFc protein was overexpressed.
We developed a sandwich ELISA technique where two ALK antibodies (for example, 5H3 or 7F7) can be used to capture the ALK extracellular fragment (antigen), and another antibody, such as the 8G7 antibody, can be used to detect the captured ALK extracellular fragment-5H3 or 7F7 complex. The different epitope binding sites of these antibodies on the ALK extracellular fragment protein allow for the development of the sandwich ELISA technique for the detection of the cleaved or shed ALK extracellular fragment in patient serum samples (FIG. 18). […]

ALK = ALK (Homo sapiens, UniProt Q9UM73); assay: Screening and subcloning of hybridomas (ELISA, FCM, functional assays); set-up: The human ALK extracellular domain (19-682 aa) fused to the mouse Fc gene; made in house; host or cells: 293T cells; details: after subcloning by limiting dilution
Chain of ALK (Q9UM73 19-682): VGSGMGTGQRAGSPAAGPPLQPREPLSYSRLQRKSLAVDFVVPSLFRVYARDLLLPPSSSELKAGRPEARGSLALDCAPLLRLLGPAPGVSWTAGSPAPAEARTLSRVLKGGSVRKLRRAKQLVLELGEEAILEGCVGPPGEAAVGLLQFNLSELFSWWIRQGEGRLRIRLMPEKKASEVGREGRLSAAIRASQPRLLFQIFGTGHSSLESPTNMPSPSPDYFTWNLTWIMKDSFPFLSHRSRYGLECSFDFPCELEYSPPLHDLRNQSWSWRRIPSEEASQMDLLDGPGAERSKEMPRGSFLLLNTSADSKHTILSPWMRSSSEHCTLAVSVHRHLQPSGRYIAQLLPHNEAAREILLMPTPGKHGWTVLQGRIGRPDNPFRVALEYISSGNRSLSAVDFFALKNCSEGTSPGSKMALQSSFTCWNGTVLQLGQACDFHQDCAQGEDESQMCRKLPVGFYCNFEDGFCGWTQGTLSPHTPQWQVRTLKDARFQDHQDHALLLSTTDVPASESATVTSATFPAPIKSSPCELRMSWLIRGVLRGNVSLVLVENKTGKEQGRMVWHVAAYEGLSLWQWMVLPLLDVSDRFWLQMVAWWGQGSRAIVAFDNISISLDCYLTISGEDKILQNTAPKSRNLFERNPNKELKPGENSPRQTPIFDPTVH
Experimental: HAT-selected fused cells were distributed in 96 well plates and the hybridoma supernatants were subjected to several rounds of screening. Initial screening was performed using ELISA against human Fc to test antigen binding with the ALK ECD-human Fc fusion protein. […] These were rescreened by FACS against Ba/F3 and neuroblastoma (NB) cells expressing ALK. From this screen, 22 positive hybridoma supernatants were tested in an antigen-binding capture ELISA assay and 11 were subsequently selected for further analysis. (A) Binding of hybridoma supernatants using an antigen-binding capture assay. The plate was coated with goat-anti-mouse IgG Fc, incubated with hybridoma supernatants, followed by ALK-HRP and visualized using an HRP substrate. (B) Binding of selected hybridoma supernatants to a human Fc antibody using ELISA screening. Plates were coated with the ALK ECD-human Fc fusion protein (ALK-hFc) together with an irrelevant hFc protein and visualized using an anti-mouse kappa light chain antibody. Only the supernatants with the highest binding are shown.
Supernatants from individual clones were then screened by ELISA and FACS analysis for ALK binding. Shown here is the viability of NGP neuroblastoma cells (expressing ALK) in the presence of anti-mouse IgG antibody in hybridoma clone supernatants. […]

B1: 8G7: murine monoclonal IgG1 anti-ALK antibody to the N-terminal ECD of human ALK; VH SEQ ID NO: 3, VL SEQ ID NO: 4 (antibody, V domains shown)
VH: QVQLQQSGAELVRPGASVTLSCKASGYTFTDYEMHWVKQTPVHGLEWIGAIDPETGGSAYNQKFKAKAILTADRSSSTAYMELRSLTSEDSAVYYCTRTRYYGSSPAMDYWGQGTSVTVSS
VL: DIQMTQTTSSLSASLGDRVTISCSASQGIGNYLNWYQQKPDGTVKLLIYYTSSLHSGVPSRFSGSGSGTDYSLTISNLEPEDIATYYCQQYSKLPYTFGGGTKLEIK
immunoprecipitation of ALK (full-length ALK receptor): can immunoprecipitate ALK; also recorded: immunoprecipitated only the full-length 220 kDa form of ALK | recognition of ALK lacking the majority of the ECD in immunofluorescence (ALK receptor; NIH3T3-ALK-del MAM2 to 654 aa, negative control): not recognized | binding to the ALK receptor in immunofluorescence (ALK receptor; SHEP NB cells engineered to express the ALKF1174L mutation, 1:100 dilution of antibody): bind to the ALK receptor in immunofluorescence assays | recognition of ALK at the cell surface (ALK receptor; immunofluorescence, immunocytochemistry and immunohistochemistry): recognize ALK at the cell surface by immunofluorescence, immunocytochemistry and immunohistochemistry | recognition of circulating ALK extracellular fragment in sera [1]: recognize the circulating ALK extracellular fragment in the sera of patients with ALK-expressing neuroblastoma | ALK specificity of the clone's monoclonal antibody (ALK): high ALK specificity
